# Measurements taken from publication PMC9884143 (2023).
# Numbering of substitutions follows the chain as printed.
# B1: CoV2-YD-9 (antibody, V domains shown)
# VH: QVQLVESGGGLVQAGGSVRLSCAASGITFSNYASQWFRQTPGKAREFVAAISGGGTTSYAASVKGRFTLSRDNAKNTVYLQMNDLKFEDTAVYYCHTADLYSDYWGQGTQVTVS
# B2: CoV2-YD-7 (antibody, V domains shown)
# VH: QVQLVESGGGLVQPGGSLRLSCTASVHPFSIYDMGWYRQAPGKQRVLVASISSDGTTDYADSVKGRFTISRDNAKNTVYLQMDSLKPEDTAVYYCNLAYVTWGQGTQVTVS
# B3: CoV2-YD-6 (antibody, V domains shown)
# VH: QVQLVESGGGSVQVGGSLRLSCAASGMTFSSATMAWYRQAPGKQREWVAGIGSGGRTSYASSMKGRFTISRDNAKNTVYLQMNSLKPEDTAVYYCYTALLSGGDYWGQGTQVTVS
# B4: CoV2-YD-2 (antibody, V domains shown)
# VH: QVQLVESGGGLVQPGGSLRLSCSISGFSFGYSAIGWFRQAPGLEREWVSTISSNGDDTVYADSVKGRFTISRDNAKNTVYLQMDSLKPEDTAVYYCARSFRWSRLPRDYDSWGQGTQVTVS
# B5: CoV2-YD-3 (antibody, V domains shown)
# VH: QVQLVESGGGLVQAGGSLRLSCVASTTWFSNFGMGWYRQAPGKQRELVAGITYDGTTKYVDSVKGRSTIARDNAKNTVSLQMNSVKPGDTAIYYCNTYPSQLWNWGQGTQVTVS
# B6: CoV2-YD-8 (antibody, V domains shown)
# VH: QVQLVESGGGLVQPGGSLSLSCAASGSMNSMNPMGWYRQAPGKEREVVARISSGGSTTYTDSVKGRFTISRDSAKNTVYLQMNSLKPDDTAVYYCYIIDDYGVQYWGKGTQVTVS
# B7: CoV2-YD-33 (antibody, V domains shown)
# VH: DVQLVESGGGLVQAGGSLRLSCVASGSTDSNYVMGWHRQTSGKQSEWVASIESGGEKKIVDSVKGRFTISRDNAKNTVYLQMNSLKPEDTAVYYCFYERLAWDTSTYWGQGTQVTVS
# B8: CoV2-YD-34 (antibody, V domains shown)
# VH: B7 VH with H37Y, S45R, E52N, K57T, K58R, I59S, V60A, V63E, R71G, A91G
# Biological target: SARS-CoV-2 Spike S1 (Wuhan; S1 or RBD) (Severe acute respiratory syndrome …, UniProt P0DTC2)
# Assay: SPR
row,Binder,Kd [nM]
1,B1,0.0164
2,B2,3.24
3,B3,2.91
4,B4,3.68
5,B5,0.0409
6,B6,0.126
7,B7,3.54
8,B8,0.541
